Experimental findings from article PMC10944485, “Structure of full-length ERGIC-53 in complex with MCFD2 for cargo transport” (Nature Communications, 2024) are described below.

Assay [1] concerns the target ERGIC-53 ΔH34 mutant with a C-terminal FLAG (human) (UniProt P49257). The experiment in a line: cryo-EM structure; ERGIC-53 ΔH34-MCFD2 complex, 1.7 mg/ml.
Assay [2] concerns the target T1, full-length human ERGIC-53 with a C-terminal PA tag (human, UniProt P49257 31-510).
T1 construct: ERGIC-53 (LMAN1), human, full length; cDNA subcloned from a HeLa cDNA library; Eluted from the beads with PA peptide; no step that removes the tag is described; Treated with 1 mM diamide before SEC; mixture of covalent (disulfide-linked) and noncovalent tetramers; The CRD is numbered from residue 31, so the signal peptide is probably cut off in the cells (surmised); also called LMAN1; P58
T1 sequence (looked up): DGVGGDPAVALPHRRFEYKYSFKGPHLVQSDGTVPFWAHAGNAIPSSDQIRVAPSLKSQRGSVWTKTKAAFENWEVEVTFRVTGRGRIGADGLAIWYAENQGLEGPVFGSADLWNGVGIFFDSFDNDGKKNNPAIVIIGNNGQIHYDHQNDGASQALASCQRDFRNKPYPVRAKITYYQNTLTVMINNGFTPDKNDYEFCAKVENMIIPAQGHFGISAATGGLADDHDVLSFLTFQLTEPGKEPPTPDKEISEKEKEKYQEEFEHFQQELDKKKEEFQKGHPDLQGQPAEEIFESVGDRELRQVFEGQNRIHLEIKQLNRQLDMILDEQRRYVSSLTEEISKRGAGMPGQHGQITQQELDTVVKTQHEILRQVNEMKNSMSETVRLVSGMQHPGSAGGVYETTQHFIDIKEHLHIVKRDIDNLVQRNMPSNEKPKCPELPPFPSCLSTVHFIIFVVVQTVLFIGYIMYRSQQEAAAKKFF
Description: SEC-MALS; Superdex 200 Increase 3.2/300; 20 mM Tris-HCl pH 7.5, 150 mM NaCl, 10 mM CaCl2, 0.02% GDN; samples 1.6-1.7 mg/ml; conjugate analysis (MALS-UV-RI); ERGIC-53 alone and its complex with MCFD2. Conditions: both partners purified.

Assay [3] concerns the target T2, full-length human ERGIC-53 with a C-terminal PA tag (human), P49257.
T2 chain: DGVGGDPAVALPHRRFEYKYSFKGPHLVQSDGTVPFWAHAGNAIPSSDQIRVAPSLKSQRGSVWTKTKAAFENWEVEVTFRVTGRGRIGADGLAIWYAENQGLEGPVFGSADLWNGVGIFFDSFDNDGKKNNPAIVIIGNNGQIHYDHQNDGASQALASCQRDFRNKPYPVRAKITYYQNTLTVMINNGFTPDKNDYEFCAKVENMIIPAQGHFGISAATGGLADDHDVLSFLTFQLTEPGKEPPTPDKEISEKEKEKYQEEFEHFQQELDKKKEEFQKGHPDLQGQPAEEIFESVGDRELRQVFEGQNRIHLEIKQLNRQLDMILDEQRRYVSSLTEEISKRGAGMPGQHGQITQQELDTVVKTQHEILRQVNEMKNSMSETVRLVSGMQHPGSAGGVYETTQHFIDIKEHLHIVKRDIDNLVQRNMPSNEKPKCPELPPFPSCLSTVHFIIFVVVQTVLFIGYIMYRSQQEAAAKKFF
The experiment in a line: SEC-MALS; ERGIC-53 at weakly acidic Golgi pH (pH 6.5). Conditions: remark: other sources report otherwise. Background: SEC sorts molecules by how far they enter the pores of the column.

The target of assay [4] is T2, full-length human ERGIC-53 with a …. Description: SEC-MALS; Superdex 200 Increase 3.2/300; 20 mM Tris-HCl pH 7.5, 150 mM NaCl, 10 mM CaCl2, 0.02% GDN; samples 1.6-1.7 mg/ml; conjugate analysis (MALS-UV-RI); ERGIC-53 alone and its complex with MCFD2. Conditions: remark: other sources report otherwise.
Assay [5] shares this target. The experiment in a line: cryo-EM structure; full-length ERGIC-53 with MCFD2, 4-5 mg/ml in GDN with 3 mM fluorinated Fos-Choline-8; head region forms A and B, four substates, and full-length map. Conditions: remark: other sources report otherwise.

As usually defined, the stoichiometry N is a count of units in the complex or per binding partner. With “ERGIC-53 ΔH34 mutant with a C-terminal FLAG (from UniProt P49257 31-510) (receptor)”, in assay [1], the stoichiometry N was 4.

B1: human MCFD2 lumen domain (residues 27-146) (domain or fragment, UniProt Q8NI22 27-146, looked up)
chain: EEPAASFSQPGSMGLDKNTVHDQEHIMEHLEGVINKPEAEMSPQELQLHYFKMHDYDGNNLLDGLELSTAITHVHKEEGSEQAPLMSEDELINIIDGVLRDDDKNNDGYIDYAEFAKSLQ
notes: MCFD2, human, lumen domain, residues 27-146, in pET15b; Thrombin cleavage of the pET15b His tag probably leaves a few vector residues at the N-terminus (surmised); also called multiple coagulation factor deficiency 2; source: E. coli BL21 (DE3), purified (Ni-NTA, MonoQ, thrombin cleavage, SEC); not shown: His tag, N-terminal, cleaved
As to B1, the “stoichiometry N” value in assay [2] amounted to 1.

B2: full-length human ERGIC-53 with a C-terminal PA tag, P49257 31-510 (receptor)
chain: DGVGGDPAVALPHRRFEYKYSFKGPHLVQSDGTVPFWAHAGNAIPSSDQIRVAPSLKSQRGSVWTKTKAAFENWEVEVTFRVTGRGRIGADGLAIWYAENQGLEGPVFGSADLWNGVGIFFDSFDNDGKKNNPAIVIIGNNGQIHYDHQNDGASQALASCQRDFRNKPYPVRAKITYYQNTLTVMINNGFTPDKNDYEFCAKVENMIIPAQGHFGISAATGGLADDHDVLSFLTFQLTEPGKEPPTPDKEISEKEKEKYQEEFEHFQQELDKKKEEFQKGHPDLQGQPAEEIFESVGDRELRQVFEGQNRIHLEIKQLNRQLDMILDEQRRYVSSLTEEISKRGAGMPGQHGQITQQELDTVVKTQHEILRQVNEMKNSMSETVRLVSGMQHPGSAGGVYETTQHFIDIKEHLHIVKRDIDNLVQRNMPSNEKPKCPELPPFPSCLSTVHFIIFVVVQTVLFIGYIMYRSQQEAAAKKFF
As for B2, the stoichiometry N in assay [3], in assay [4] and in assay [5] was 4 in each case.
